Results as given in patent publication US20050244902A1.

Target: antiserum 98192
Assay: RIA, displacement of 125I-proBNP 1-10Tyr tracer from antiserum 98192

Binder | ratio of median inhibitory dose (ID50)
PLGSPGSASDLETSGLQEQR [N-terminal truncated fragment of human proBNP 1-21 with the N-terminal histidine removed] | 0.001
LGSPGSASDLETSGLQEQR | 0.0006
